Experiment in all cases: cell-based or functional assay
For test [1], the target named is T1, human GIP receptor (human, UniProt P48546 22-466).
T1 sequence (looked up): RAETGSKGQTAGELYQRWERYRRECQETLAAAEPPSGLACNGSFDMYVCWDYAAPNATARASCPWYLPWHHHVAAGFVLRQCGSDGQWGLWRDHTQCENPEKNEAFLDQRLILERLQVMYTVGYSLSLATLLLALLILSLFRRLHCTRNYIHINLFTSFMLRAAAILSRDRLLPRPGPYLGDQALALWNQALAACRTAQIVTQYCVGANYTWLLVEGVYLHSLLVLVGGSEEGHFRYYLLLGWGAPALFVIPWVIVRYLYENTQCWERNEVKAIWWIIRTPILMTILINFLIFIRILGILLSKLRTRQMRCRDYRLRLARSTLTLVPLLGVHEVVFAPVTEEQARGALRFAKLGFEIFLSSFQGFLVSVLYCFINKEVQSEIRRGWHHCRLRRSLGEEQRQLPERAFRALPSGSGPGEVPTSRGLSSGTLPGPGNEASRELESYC

Test [2] has as its target human GLP-1 receptor (human, UniProt P43220 24-463).
For test [3], the target named is human glucagon receptor (human, UniProt P47871 26-477).

Substitutions are numbered along the chain they refer to. *1 amine or outer side, *2 acyl side, *3 side chain or, on linkers, in order; H or OH if unused. Where no end group is shown, it is not given here. Side-chain parts run from the residue outwards. [ ]: non-standard residue; d: D form. The star is where a group is joined. αMePhe(2-F) = C[C@](N)(Cc1ccccc1F)C(=O)O; γGlu = O=C(O)[C@H](CCC(=O)[*:2])N[*:1]; C14 diacid = O=C(O)CCCCCCCCCCCCC(=O)*; αMeY = C[C@](N)(Cc1ccc(O)cc1)C(=O)O; αMeL = CC(C)C[C@](C)(N)C(=O)O; Nle = CCCC[C@H](N)C(=O)O; Orn = NCCC[C@H](N)C(=O)O; AEEA = NCCOCCOCC(=O)O; Aib = CC(C)(N)C(=O)O

B1: Example 269 (peptide)
peptide: Y[Aib]EGT[αMePhe(2-F)]TSD[Nle]SI[αMeL]LD[Orn]IAQ[Aib]EFIK([AEEA-AEEA-γGlu-C14 diacid])[αMeY]LIK([AEEA-AEEA-γGlu-C14 diacid])GGPSSGAPPPS-NH2
modifications: N-terminus assumed
SMILES: CCCC[C@H](NC(=O)[C@H](CC(=O)O)NC(=O)[C@H](CO)NC(=O)[C@@H](NC(=O)[C@](C)(Cc1ccccc1F)NC(=O)[C@@H](NC(=O)CNC(=O)[C@H](CCC(=O)O)NC(=O)C(C)(C)NC(=O)[C@@H](N)Cc1ccc(O)cc1)[C@@H](C)O)[C@@H](C)O)C(=O)N[C@@H](CO)C(=O)N[C@H](C(=O)N[C@@](C)(CC(C)C)C(=O)N[C@@H](CC(C)C)C(=O)N[C@@H](CC(=O)O)C(=O)N[C@@H](CCCN)C(=O)N[C@H](C(=O)N[C@@H](C)C(=O)N[C@@H](CCC(N)=O)C(=O)NC(C)(C)C(=O)N[C@@H](CCC(=O)O)C(=O)N[C@@H](Cc1ccccc1)C(=O)N[C@H](C(=O)N[C@@H](CCCCNC(=O)COCCOCCNC(=O)COCCOCCNC(=O)CC[C@H](NC(=O)CCCCCCCCCCCCC(=O)O)C(=O)O)C(=O)N[C@@](C)(Cc1ccc(O)cc1)C(=O)N[C@@H](CC(C)C)C(=O)N[C@H](C(=O)N[C@@H](CCCCNC(=O)COCCOCCNC(=O)COCCOCCNC(=O)CC[C@H](NC(=O)CCCCCCCCCCCCC(=O)O)C(=O)O)C(=O)NCC(=O)NCC(=O)N1CCC[C@H]1C(=O)N[C@@H](CO)C(=O)N[C@@H](CO)C(=O)NCC(=O)N[C@@H](C)C(=O)N1CCC[C@H]1C(=O)N1CCC[C@H]1C(=O)N1CCC[C@H]1C(=O)N[C@@H](CO)C(N)=O)[C@@H](C)CC)[C@@H](C)CC)[C@@H](C)CC)[C@@H](C)CC
As for B1, the “cAMP EC50 (1.0% HSA)” value was 2.65 nM in test [1], 46.5 nM in test [2] and above 9.95 µM in test [3].

B2: Example 254 (peptide)
peptide: YXEGTXTSDXSIXLDXIAQXKFIXXLIEGGPSSGAPPPSK
modifications: Y-Aib-EGT-αMeF(2F)-TSD-2Nal-SI-αMeL-LD-Orn-IAQ-Aib-K((2-[2-(2-Amino-ethoxy)-ethoxy]-acetyl)2-(γ-Glu)-CO-(CH2)12-CO2H)FI-(D-Glu)-αMeY-LIEGGPSSGAPPPSK((2-[2-(2-Amino-ethoxy)-ethoxyl-acetyl)2-(γ-Glu)-CO-(CH2)12-CO2H)-NH2
As to B2, the “cAMP EC50 (1.0% HSA)” value in test [1] was 16.8 nM; in test [2] it was 211 nM; in test [3] it was above 9.95 µM. Further, the figures for the “cAMP Emax (1.0% HSA)” value in test [1] and in test [2] were 68.5% and 122%, respectively.

B3: Example 267 (peptide)
peptide: B2 peptide with I17K, K21E
modifications: Y-Aib-EGT-αMeF(2F)-TSD-OMeY-SI-αMeL-LD-Orn-K((2-[2-(2-Amino-ethoxy)-ethoxy]-acetyl)2-CO-(CH2)12-CO2H)AQ-Aib-EFI-(D-Glu)-αMeY-LIEGGPSSGAPPPSK((2-[2-(2-Amino-ethoxy)-ethoxy]-acetyl)2-CO-(CH2)12-CO2H)-NH2
Regarding B3, the “cAMP EC50 (1.0% HSA)” value in test [1] was 0.808 nM; in test [2] it was 8.46 nM; in test [3] it was above 9.95 µM.

B4: Example 264 (peptide)
peptide: B2 peptide
modifications: Y-Aib-EGT-αMeF(2F)-TSD-OMeY-SI-αMeL-LD-Orn-IAQ-Aib-K((2-[2-(2-Amino-ethoxy)-ethoxy]-acetyl)2-(γ-Glu)-CO-(CH2)12-CO2H)FI-(D-Glu)-αMeY-LIEGGPSSGAPPPSK((2-[2-(2-Amino-ethoxy)-ethoxyl-acetyl)2-(γ-Glu)-CO-(CH2)12-CO2H)-NH2
Take B4: the results for the “cAMP EC50 (1.0% HSA)” value in test [1], in test [2] and in test [3] were 7.12 nM, 75.2 nM and above 9.95 µM, respectively. The “cAMP Emax (1.0% HSA)” value in test [1] was 84.4%.

B5: Example 257 (peptide)
peptide: B2 peptide with I17K, K21E
modifications: Y-Aib-EGT-αMeF(2F)-TSD-2Nal-SI-αMeL-LD-Orn-K((2-[2-(2-Amino-ethoxy)-ethoxy]-acetyl)2-CO-(CH2)12-CO2H)AQ-Aib-EFI-(D-Glu)-αMeY-LIEGGPSSGAPPPSK((2-[2-(2-Amino-ethoxy)-ethoxy]-acetyl)2-CO-(CH2)12-CO2H)-NH2
As to B5, the “cAMP EC50 (1.0% HSA)” value in test [1] was 5.61 nM; in test [2], 46.3 nM; in test [3], above 9.95 µM. The “cAMP Emax (1.0% HSA)” value in test [1] was determined as 72.2%.

B6: Example 273 (peptide)
peptide: B2 peptide with I17K, K21E
modifications: Y-Aib-EGT-αMeF(2F)-TSD-4Pal-SI-αMeL-LD-Orn-K((2-[2-(2-Amino-ethoxy)-ethoxy]-acetyl)2-(γ-Glu)-(10-(4-carboxyphenoxy)decanoyl))AQ-Aib-EFI-(D-Glu)-αMeY-LIEGGPSSGAPPPSK((2-[2-(2-Amino-ethoxy)-ethoxy]-acetyl)2-(γ-Glu)-(10-(4-carboxyphenoxy)decanoyl))-NH2
On to B6, for which the “cAMP EC50 (1.0% HSA)” value is 0.318 nM in test [1], 40.9 nM in test [2] and above 9.95 µM in test [3].

B7: Example 268 (peptide)
peptide: B2 peptide
modifications: Y-Aib-EGT-αMeF(2F)-TSD-OMeY-SI-αMeL-LD-Orn-IAQ-Aib-K((2-[2-(2-Amino-ethoxy)-ethoxy]-acetyl)2-CO-(CH2)12-CO2H)FI-(D-Glu)-αMeY-LIEGGPSSGAPPPSK((2-[2-(2-Amino-ethoxy)-ethoxy]-acetyl)2-CO-(CH2)12-CO2H)-NH2
For the molecule B7, the “cAMP EC50 (1.0% HSA)” value in test [1] is 5.06 nM; in test [2], 26.5 nM; in test [3] it was above 9.95 µM. Also, the “cAMP Emax (1.0% HSA)” value in test [1] stood at 92.3%.

B8: Example 261 (peptide)
peptide: B2 peptide with I17K, K21E
modifications: Y-Aib-EGT-αMeF(2F)-TSD-OMeY-SI-αMeL-LD-Orn-K((2-[2-(2-Amino-ethoxy)-ethoxy]-acetyl)2-(γ-Glu)-CO-(CH2)12-CO2H)AQ-Aib-EFI-(D-Glu)-αMeY-LIEGGPSSGAPPPSK((2-[2-(2-Amino-ethoxy)-ethoxy]-acetyl)2-(γ-Glu)-CO-(CH2)12-CO2H)-NH2
In the case of B8, the “cAMP EC50 (1.0% HSA)” value in test [1] is 2.28 nM; in test [2] it was 15.6 nM; in test [3] it was above 9.95 µM. Moreover, the “cAMP Emax (1.0% HSA)” value in test [1] amounted to 75.7%.

B9: Example 258 (peptide)
peptide: B2 peptide
modifications: Y-Aib-EGT-αMeF(2F)-TSD-2Nal-SI-αMeL-LD-Orn-IAQ-Aib-K((2-[2-(2-Amino-ethoxy)-ethoxy]-acetyl)2-CO-(CH2)12-CO2H)Fl-(D-Glu)-αMeY-LIEGGPSSGAPPPSK((2-[2-(2-Amino-ethoxy)-ethoxy]-acetyl)2-CO-(CH2)12-CO2H)-NH2
As for B9, the “cAMP EC50 (1.0% HSA)” value in test [1] was 5.28 nM; in test [2] it was 41.5 nM; in test [3] it was above 9.95 µM. Moreover, the “cAMP Emax (1.0% HSA)” value in test [1] came out at 84.3%.

B10: Example 276 (peptide)
peptide: B2 peptide
modifications: Y-Aib-EGT-αMeF(2F)-TSD-4Pal-SI-αMeL-LD-Orn-IAQ-Aib-K((2-[2-(2-Amino-ethoxy)-ethoxy]-acetyl)2-(y-Glu)-(10-(4-carboxyphenoxy)decanoyl))FI-(D-Glu)-αMeY-LIEGGPSSGAPPPSK((2-[2-(2-Amino-ethoxy)-ethoxy]-acetyl)2-(γ-Glu)-(10-(4-carboxyphenoxy)decanoyl))-NH2
Regarding B10, the “cAMP EC50 (1.0% HSA)” value in test [1] is 1.97 nM; in test [2], 63.6 nM; in test [3] it was above 9.95 µM. Also, the “cAMP Emax (1.0% HSA)” value in test [1] stood at 91.4%.

B11: Example 252 (peptide)
peptide: YXEGTXTSDXSIXLDXIAQXEFIKXLIKGGPSSGAPPPS
modifications: Y-Aib-EGT-αMeF(2F)-TSD-2Nal-SI-αMeL-LD-Orn-IAQ-Aib-EFIK((2-[2-(2-Amino-ethoxy)-ethoxy]-acetyl)2-(γ-Glu)-CO-(CH2)12-CO2H)-αMeY-LIK((2-[2-(2-Amino-ethoxy)-ethoxy]-acetyl)2-(γ-Glu)-CO-(CH2)12-CO2H)GGPSSGAPPPS-NH2
For the molecule B11, the “cAMP EC50 (1.0% HSA)” value is 29.9 nM in test [1], 131 nM in test [2] and above 9.95 µM in test [3].

B12: Example 270 (peptide)
peptide: B11 peptide
modifications: Y-Aib-EGT-αMeF(2F)-TSD-hTyr-SI-αMeL-LD-Orn-IAQ-Aib-EFIK((2-[2-(2-Amino-ethoxy)-ethoxy]-acetyl)2-(γ-Glu)-CO-(CH2)12-CO2H)-αMeY-LIK((2-[2-(2-Amino-ethoxy)-ethoxy]-acetyl)2-(γ-Glu)-CO-(CH2)12-CO2H)GGPSSGAPPPS-NH2
In the case of B12, the “cAMP EC50 (1.0% HSA)” value in test [1] was 3.8 nM; in test [2], 32.6 nM; in test [3], above 9.95 µM. Further, in test [1], the “cAMP Emax (1.0% HSA)” value was 80.9%.

B13: Example 265 (peptide)
peptide: B11 peptide with I17K, E21K, K24X, K28E
modifications: Y-Aib-EGT-αMeF(2F)-TSD-OMeY-SI-αMeL-LD-Orn-K((2-[2-(2-Amino-ethoxy)-ethoxy]-acetyl)2-CO-(CH2)12-CO2H)AQ-Aib-K((2-[2-(2-Amino-ethoxy)-ethoxy]-acetyl)2-CO-(CH2)12-CO2H)FI-(D-Glu)-αMeY-LIEGGPSSGAPPPS-NH2 …
Turning to B13, the “cAMP EC50 (1.0% HSA)” value was 0.775 nM in test [1], 5.14 nM in test [2] and above 9.95 µM in test [3].

The values above are taken from patent publication US20230265151A1, “GIP/GLP1 CO-AGONIST COMPOUNDS” (priority 2020, published 2023).
